# Results published in patent US20090221680, “Aptamers that bind thrombin with high affinity” (published 2009).
# Molecular target: thrombin (alpha-thrombin) (Homo sapiens, UniProt P00734;P00734 P00734:315-363,P00734:364-622)
# Assay: filter; 10 nM thrombin
# Conditions: not given
row,Binder,binding signal [% bound]
1,TCCCGGTTGTCGATTCTGGTATTGTTGGGCTGGGTGGCTGAGGATCGATC (ssDNA) [AMX(399)_H7],38.1
2,TCCCATCGAACCTCGAGGGTATTGTTGGTTTGGGTGGCTGAGGATCGATC (ssDNA) [AMX(399)_H1],21.2
3,TCCCGATTTGAGTTTAGTAGGGTGGGTAGGATGGTGGCTGAGGATCGATC (ssDNA) [AMX(398)_D1],20.7
4,TCCCTTGTCGATTCTGGTATGTTTTGGTCCGGGTGGCTGAGGATCGATC (ssDNA) [AMX(398)_D7],35
5,TCCCATGATTGGCCGGGGTGTCTTTTGGGTCGGGTGGCTGAGGATCGATC (ssDNA) [AMX(398)_C6],28
6,TCCCATGATCGGGTCGGTATTTGTTGGTCAGGGTGGCTGAGGATCGATC (ssDNA) [AMX(398)_D3],20
7,TCCCGTGAGAGCTGGGGTGTTTATATGGGTCGGGTGGCTGAGGATCGATC (ssDNA) [AMX(399)_G9],21.3
8,TCCCAGCGGTCCTAATGGGTAGTGTTGGTTTGGGTGGCTGAGGATCGATC (ssDNA) [AMX(398)_D5],12
9,TCCCTTGATCTGGGGTGCGTTATTGTGGTTCGGGTGGCTGAGGATCGATC (ssDNA) [AMX(398)_E7],27.9
10,TCCCGGATCCTCGTGGGTATTGTTGGGTTGGGTGGCTGAGGATCGATC (ssDNA) [AMX(399)_G12],40.6
11,TCCCGTCGAGCCGGGGTATGATTATGGGTGGGGTGGCTGAGGATCGATC (ssDNA) [AMX(398)_A9],28.3
12,TCCCAGATGTGATCCGTATCCTGGTTTGGTTGGGTGGCTGAGGATCGATC (ssDNA) [AMX(398)_B3],17.5
13,TCCCATCGATTTGGGGTATGTTATGGGCTCGGGTGGCTGAGGATCGATC (ssDNA) [AMX(398)_A6],31.1
14,TCCCAAGGATCCGGGGTAGTTAGTGGCTGAGGTGGCTGAGGATCGATC (ssDNA) [AMX(398)_C2],0.2
15,TCCTGTCGATCGGTACGTTTTCGTTTCTGGGTGGCTGAGGATCGATC (ssDNA) [AMX(398)_C11],35.1
16,TCCCAACGATCTGTGGTTTTTTTGTTCTGGGTGGCTGAGGATCGATC (ssDNA) [AMX(398)_C1],35.8
17,TCCCCATCGATCCTGGTCTCTTTTGTTCTGGGTGGCTGAGGATCGATC (ssDNA) [AMX(399)_G11],12.8

row,Binder,binding signal [% bound]
1,TCCCTCGATCTTGGGGTACTATAGTGGTGTGGGTGGCTGAGGATCGATC (ssDNA) [AMX(398)_B10],26.8
2,TCCCATCGGTCCGGGGTAATTTACTGGGTCGGGTGGCTGAGGATCGATC (ssDNA) [AMX(398)_A8],40
3,TCCCATCGATCTGTGGTGGTTTTGTGGCTTGGGTGGCTGAGGATCGATC (ssDNA) [AMX(399)_G8],27.6
4,TCCCATTGATCTGTGGTGGTTTTGTGGTTTGGGTGGCTGAGGATCGATC (ssDNA) [AMX(398)_A2],26.7
5,TCCCGATCGTTTCGTGGGGTAGTGTTGGTTGGGGTGGCTGAGGATCGATC (ssDNA) [AMX(398)_C9],20.7
6,TCCCTATCGACCGGGGTTCTTTCGTGGTTCGGGTGGCTGAGGATCGATC (ssDNA) [AMX(398)_E8],26.4
7,TCCCGATTATCCGTTGGTATTGTTGGTCTGGGTGGCTGAGGATCGATC (ssDNA) [AMX(398)_B12],20.1
8,TCCCATCGATCCGGGGTATTCTTATTTCTGGGTGGCTGAGGATCGATC (ssDNA) [AMX(398)_E1],23.4
9,TCCCTGATCCTTAGGCTAGGTTGGGTGGGGTGGTGGCTGAGGATCGATC (ssDNA) [AMX(398)_B5],12.5
10,TCCCTGGTATCGTATCCAAAGGGGTGGTGTGGGTGGCTGAGGATCGATC (ssDNA) [AMX(399)_H8],23.3
11,TCCCTGCAATCGGTGCTCGAGAGGTTGGGTGGGTGGCTGAGGATCGATC (ssDNA) [AMX(398)_C12],22.8
12,TCCCATCGAGACGGGGTGTCTTTTGTGGCTTGGGTGGCTGAGGATCGATC (ssDNA) [AMX(398)_E6],29.5
13,TCCCGGAGATCTGAGGTGTTTTATTGGTTTGGGTGGCTGAGGATCGATC (ssDNA) [AMX(399)_H6],8.48
14,TCCCAATCGAGCCGGGGTTTGTTTGTTCTGGGTGGCTGAGGATCGATC (ssDNA) [AMX(398)_B1],31.3
15,TCCCTATCGAGCTGTGGTAGTATTCTGGTTTGGGTGGCTGAGGATCGATC (ssDNA) [AMX(398)_A7],26.5
16,TCCCTGGAGATCCGGGGTAGTATACTGGTTTGGGTGGCTGAGGATCGATC (ssDNA) [AMX(398)_A12],35.4
17,TCCCGATCGGACGTGGTGGGTTACTTCTGGGTGGCTGAGGATCGATC (ssDNA) [AMX(398)_E5],25.6

# Molecular target: prothrombin (Homo sapiens, UniProt P00734 P00734:44-622)
# Assay: filter; 50 nM prothrombin
# Conditions: tags: Athens Research
# Description: Dot blot binding assays were performed throughout the selections to monitor the protein binding affinity of the pools. Trace ³²P-labeled RNA was combined with a dilution series of human Thrombin (1 nM-1000 nM) and incubated at room temperature for 30 minutes in 1×DPBS (w/ Ca²⁺ and Mg²⁺) (Gibco, Catalog #14040, Invitrogen, Carlsbad, Calif.) plus 0.1 mg/ml BSA in a final volume of 30 μl. The binding reactions were analyzed by nitrocellulose filtration using a Minifold I dot-blot, 96-well vacuum filtration manifold (Schleicher & Schuell, Keene, N.H.). A three-layer filtration medium was used, consisting (from top to bottom) of Protran nitrocellulose (Schleicher & Schuell, Keene, N.H.), Hybond-P nylon (Amersham Biosciences, Piscataway, N.J.) and GB002 gel blot paper (Schleicher & Schuell, Keene, N.H.). RNA that is bound to protein is captured on the nitrocellulose filter, whereas the non-protein bound RNA is captured on the nylon filter. The gel blot paper was included simply as a supporting medium for the other filters. Following filtration, the filter layers were separated, dried and exposed on a phosphor screen (Amersham Biosciences, Piscataway, N.J.) and quantified using a Storm 860 Phosphorimager® blot imaging system (Amersham Biosciences, Piscataway, N.J.).
# Based on pool binding monitored throughout the selections as described above, Round 9 Pools from both Selection #2 and #3 were also cloned using a TOPO TA Cloning kit (Invitrogen, Carlsbad, Calif.) according to manufacturer's instructions, and sequenced. Of the 136 sequences obtained from Round 9 of both selections, 130 unique sequences were selected for assaying in a single-point dot blot screen against thrombin and prothrombin to test for selective binding to thrombin. Clones were ordered from IDT (Coralville, Iowa) at 25 μmole synthesis scale. Clone transcripts were 5′ end labeled with γ̅³²P ATP and spin purified with Centrisep columns (Princeton Separations, Adelphia, N.J.) to remove excess label. Trace amounts of labeled clone were incubated with +/−10 nM Thrombin (or +/−50 nM prothrombin) and 0.1 mg/ml BSA in a total volume of 30 μl 1×DPBS (w/ Ca²⁺ and Mg²⁺) (Gibco, Catalog #14040, Invitrogen, Carlsbad, Calif.) for 30 minutes. Post incubation, the binding reaction applied the dot-blot binding assay apparatus previously described.
row,Binder,binding signal [% bound]
1,TCCCGGTTGTCGATTCTGGTATTGTTGGGCTGGGTGGCTGAGGATCGATC (ssDNA) [AMX(399)_H7],36.1
2,TCCCATCGAACCTCGAGGGTATTGTTGGTTTGGGTGGCTGAGGATCGATC (ssDNA) [AMX(399)_H1],20.4
3,TCCCGATTTGAGTTTAGTAGGGTGGGTAGGATGGTGGCTGAGGATCGATC (ssDNA) [AMX(398)_D1],11.8
4,TCCCTTGTCGATTCTGGTATGTTTTGGTCCGGGTGGCTGAGGATCGATC (ssDNA) [AMX(398)_D7],34.6
5,TCCCATGATTGGCCGGGGTGTCTTTTGGGTCGGGTGGCTGAGGATCGATC (ssDNA) [AMX(398)_C6],11.6
6,TCCCATGATCGGGTCGGTATTTGTTGGTCAGGGTGGCTGAGGATCGATC (ssDNA) [AMX(398)_D3],20.8
7,TCCCGTGAGAGCTGGGGTGTTTATATGGGTCGGGTGGCTGAGGATCGATC (ssDNA) [AMX(399)_G9],22.5
8,TCCCAGCGGTCCTAATGGGTAGTGTTGGTTTGGGTGGCTGAGGATCGATC (ssDNA) [AMX(398)_D5],12.9
9,TCCCTTGATCTGGGGTGCGTTATTGTGGTTCGGGTGGCTGAGGATCGATC (ssDNA) [AMX(398)_E7],20.3
10,TCCCGGATCCTCGTGGGTATTGTTGGGTTGGGTGGCTGAGGATCGATC (ssDNA) [AMX(399)_G12],41.1
11,TCCCGTCGAGCCGGGGTATGATTATGGGTGGGGTGGCTGAGGATCGATC (ssDNA) [AMX(398)_A9],29.7
12,TCCCAGATGTGATCCGTATCCTGGTTTGGTTGGGTGGCTGAGGATCGATC (ssDNA) [AMX(398)_B3],16.5
13,TCCCATCGATTTGGGGTATGTTATGGGCTCGGGTGGCTGAGGATCGATC (ssDNA) [AMX(398)_A6],31.3
14,TCCCAAGGATCCGGGGTAGTTAGTGGCTGAGGTGGCTGAGGATCGATC (ssDNA) [AMX(398)_C2],0.66
15,TCCTGTCGATCGGTACGTTTTCGTTTCTGGGTGGCTGAGGATCGATC (ssDNA) [AMX(398)_C11],36.7
16,TCCCAACGATCTGTGGTTTTTTTGTTCTGGGTGGCTGAGGATCGATC (ssDNA) [AMX(398)_C1],37
17,TCCCCATCGATCCTGGTCTCTTTTGTTCTGGGTGGCTGAGGATCGATC (ssDNA) [AMX(399)_G11],11.8

row,Binder,binding signal [% bound]
1,TCCCTCGATCTTGGGGTACTATAGTGGTGTGGGTGGCTGAGGATCGATC (ssDNA) [AMX(398)_B10],25.7
2,TCCCATCGGTCCGGGGTAATTTACTGGGTCGGGTGGCTGAGGATCGATC (ssDNA) [AMX(398)_A8],43.9
3,TCCCATCGATCTGTGGTGGTTTTGTGGCTTGGGTGGCTGAGGATCGATC (ssDNA) [AMX(399)_G8],25.9
4,TCCCATTGATCTGTGGTGGTTTTGTGGTTTGGGTGGCTGAGGATCGATC (ssDNA) [AMX(398)_A2],28.4
5,TCCCGATCGTTTCGTGGGGTAGTGTTGGTTGGGGTGGCTGAGGATCGATC (ssDNA) [AMX(398)_C9],20.7
6,TCCCTATCGACCGGGGTTCTTTCGTGGTTCGGGTGGCTGAGGATCGATC (ssDNA) [AMX(398)_E8],26.7
7,TCCCGATTATCCGTTGGTATTGTTGGTCTGGGTGGCTGAGGATCGATC (ssDNA) [AMX(398)_B12],20.2
8,TCCCATCGATCCGGGGTATTCTTATTTCTGGGTGGCTGAGGATCGATC (ssDNA) [AMX(398)_E1],20.9
9,TCCCTGATCCTTAGGCTAGGTTGGGTGGGGTGGTGGCTGAGGATCGATC (ssDNA) [AMX(398)_B5],8.27
10,TCCCTGGTATCGTATCCAAAGGGGTGGTGTGGGTGGCTGAGGATCGATC (ssDNA) [AMX(399)_H8],14.3
11,TCCCTGCAATCGGTGCTCGAGAGGTTGGGTGGGTGGCTGAGGATCGATC (ssDNA) [AMX(398)_C12],15.5
12,TCCCATCGAGACGGGGTGTCTTTTGTGGCTTGGGTGGCTGAGGATCGATC (ssDNA) [AMX(398)_E6],30.3
13,TCCCGGAGATCTGAGGTGTTTTATTGGTTTGGGTGGCTGAGGATCGATC (ssDNA) [AMX(399)_H6],6.32
14,TCCCAATCGAGCCGGGGTTTGTTTGTTCTGGGTGGCTGAGGATCGATC (ssDNA) [AMX(398)_B1],32.7
15,TCCCTATCGAGCTGTGGTAGTATTCTGGTTTGGGTGGCTGAGGATCGATC (ssDNA) [AMX(398)_A7],25.4
16,TCCCTGGAGATCCGGGGTAGTATACTGGTTTGGGTGGCTGAGGATCGATC (ssDNA) [AMX(398)_A12],37.5
17,TCCCGATCGGACGTGGTGGGTTACTTCTGGGTGGCTGAGGATCGATC (ssDNA) [AMX(398)_E5],25.4
